Experimental data taken from paper PMC10629557, “Regulation of replication origin licensing by ORC phosphorylation reveals a two-step mechanism for Mcm2-7 ring closing” (Proceedings of the National Academy of Sciences of the …, 2023).

B1: FLAG-Clb5-Cdk1 (complex)
chain 1: MGENHDHEQSIKRNSMIYNENERQLCNSNLKILQNKRALSKNDSSSKQQVQDSKPRRALTDVPVNNNPLSQNKRIVAGSKAAKVRREENIRPIVSAVQKRQIYNDRTAAEQEEEEEEEGEDDDAASIVNKKRRIDAEGVSEIVGWQDLDYVEKDDTAMVAEYSAEIFAFLYRRELETLPSHNYLLDKTSKYYLRPSMRTILVDWLVEVHEKFQCYPETLFLSINLMDRFLAKNKVTMNKLQLLAVTSLFIAAKFEEVNLPKLAEYAYITDGAASKNDIKNAEMFMLTSLEFNIGWPNPLNFLRRISKADDYDPVNRNIGKFILEYAYCCHQFIHLPPSTVSAMAMYIARRMTNRNKNELWNGTLQHYSGGIDPIHDEAFQSLCIDLVKDIASSKTHLDSLILKYKKPRYGSVYFQTFKWCTSEMHSNFQNLFNLK
chain 2: not shown
notes: Clb5, S-phase B-type cyclin, S. cerevisiae; Cdk1 (Cdc28), cyclin-dependent kinase, S. cerevisiae; also called Clb5-Cdc28; source: S. cerevisiae strain ySK119, purified
B2: GST-Sic1 (natural protein, S. cerevisiae, UniProt P38634 1-284, looked up)
chain: MTPSTPPRSRGTRYLAQPSGNTSSSALMQGQKTPQKPSQNLVPVTPSTTKSFKNAPLLAPPNSNMGMTSPFNGLTSPQRSPFPKSSVKRTLFQFESHDNGTVREEQEPLGRVNRILFPTQQNVDIDAAEEEEEGEVLLPPSRPTSARQLHLSLERDEFDQTHRKKIIKDVPGTPSDKVITFELAKNWNNNSPKNDARSQESEDEEDIIINPVRVGKNPFASDELVTQEIRNERKRAMLRENPDIEDVITYVNKKGEVVEKRRLTDEEKRRFKPKALFQSRDQEH
notes: source: E. coli BL21-DE3-Rosetta (plasmid pGEX-Sic1), purified (glutathione elution)

How the values were obtained:
[1] = target: T1, origin recognition complex (ORC), wild type, unphosphorylated (S. cerevisiae, UniProt P54784 1-914; P32833 1-620; P54790 1-616; P54791 1-529; P50874 1-479; P38826 …); assay: co-IP; purified proteins: 5 pmol FLAG-Clb5-Cdk1 and 10 pmol ORC in 20 uL SM buffer with 1 mM ATP, 20 min; 10 pmol GST-Sic1 added to one of two reactions for 5 min; magnetic anti-Flag beads, 3 washes, elution with 3xFLAG peptide, SDS gel; settings: both partners purified
T1 construct: Orc1, subunit of the origin recognition complex, S. cerevisiae; Orc2, subunit of the origin recognition complex, S. cerevisiae; Orc3, subunit of the origin recognition complex, S. cerevisiae; Orc4, subunit of the origin recognition complex, S. cerevisiae; Orc5, subunit of the origin recognition complex, S. cerevisiae; Orc6, subunit of the origin recognition complex, S. cerevisiae; For the …

FLAG-Clb5-Cdk1 = target: B1; assay: as above; settings: both partners purified
FLAG-Clb5-Cdk1, sequence (P00546 whole entry): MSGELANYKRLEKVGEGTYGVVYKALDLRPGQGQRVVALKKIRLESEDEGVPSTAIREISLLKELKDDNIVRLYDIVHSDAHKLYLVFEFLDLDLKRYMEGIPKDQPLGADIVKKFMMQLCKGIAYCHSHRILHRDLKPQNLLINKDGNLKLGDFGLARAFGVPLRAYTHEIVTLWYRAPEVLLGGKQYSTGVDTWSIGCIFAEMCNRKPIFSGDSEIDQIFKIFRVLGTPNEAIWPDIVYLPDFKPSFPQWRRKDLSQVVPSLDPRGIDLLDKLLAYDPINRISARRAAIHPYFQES

Row | Binder | binding result [1] | binding result (FLAG-Clb5-Cdk1)
1 | B1 | binds | 
2 | B2 |  | binds
